The target in this test is HA-tagged mutant (Leu15) AP2σ2 subunit (human) (human) (UniProt P53680). The test is described as follows: co-IP.

For “AP2α subunit, endogenous in HEK293 cells (from UniProt O95782 1-977) (natural protein)”, the reduction of the subunit in the HA-AP2σ2 immunoprecipitate against WT cells is over 50%.

The values above are taken from doi:10.1101/2020.08.10.244244.
